The text below walks through data of article PMC5388505, “Interferon-inducible ribonuclease ISG20 inhibits hepatitis B virus replication through directly binding to the epsilon stem-loop structure of viral RNA”.

In data set [1] the target is T1, ISG20 (wild type) (UniProt Q96AZ6 1-181). The experiment in a line: EMSA; no Mn2+; ISG20 EMSA: 20 mM HEPES, 100 mM KCl, 1 mM DTT, 0.5 mg/ml BSA, 10% glycerol, 0.05 ug/ul poly[dI-dC], 30 C 30 min, 100 ng RNA, pH not stated; Pol EMSA: 20 mM Tris pH 7.5, 2 mM MgCl2, 15 mM NaCl, 20 mM KCl, 4 mM DTT, yeast tRNA, 30 C 1 h. As to conditions: protein: recombinant; label: 5'-32P; hairpin. In general terms: A gel shift assay detects complexes by their altered migration in electrophoresis.

The target of data set [2] is T1, ISG20 (wild type). The experiment in a line: EMSA; no Mn2+; bottom 4 bp stated indispensable for binding; ISG20 EMSA: 20 mM HEPES, 100 mM KCl, 1 mM DTT, 0.5 mg/ml BSA, 10% glycerol, 0.05 ug/ul poly[dI-dC], 30 C 30 min, 100 ng RNA, pH not stated; Pol EMSA: 20 mM Tris pH 7.5, 2 mM MgCl2, 15 mM NaCl, 20 mM KCl, 4 mM DTT, yeast tRNA, 30 C 1 h. As to conditions: protein: recombinant; label: 5'-32P; hairpin.

In the next data set the target is ISG20 dExoI (UniProt Q96AZ6 1-181, del7-16). In words: EMSA; no Mn2+; binding not reduced, even increased vs wild type; ISG20 EMSA: 20 mM HEPES, 100 mM KCl, 1 mM DTT, 0.5 mg/ml BSA, 10% glycerol, 0.05 ug/ul poly[dI-dC], 30 C 30 min, 100 ng RNA, pH not stated; Pol EMSA: 20 mM Tris pH 7.5, 2 mM MgCl2, 15 mM NaCl, 20 mM KCl, 4 mM DTT, yeast tRNA, 30 C 1 h. The note with it: protein: recombinant; tags: 6xHis (pRSET A); label: 5'-32P; stem-loop with bulge and apical loop.

A further data set deals with ISG20 dExoII (UniProt Q96AZ6 1-181, del86-101). Described as above. The note with it: protein: recombinant; tags: 6xHis (pRSET A); label: 5'-32P; stem-loop with bulge and apical loop.
The next data set concerns the target ISG20 D94G (UniProt Q96AZ6 1-181, D94G). The experiment in a line: EMSA; no Mn2+; complex with altered mobility; ISG20 EMSA: 20 mM HEPES, 100 mM KCl, 1 mM DTT, 0.5 mg/ml BSA, 10% glycerol, 0.05 ug/ul poly[dI-dC], 30 C 30 min, 100 ng RNA, pH not stated; Pol EMSA: 20 mM Tris pH 7.5, 2 mM MgCl2, 15 mM NaCl, 20 mM KCl, 4 mM DTT, yeast tRNA, 30 C 1 h. As to conditions: protein: recombinant; tags: 6xHis (pRSET A); label: 5'-32P; stem-loop with bulge and apical loop.

In data set [3] the target is T1, ISG20 (wild type). In words: EMSA; no Mn2+; dose-dependent; supershift with anti-His; competed by 10-40x cold epsilon; ISG20 EMSA: 20 mM HEPES, 100 mM KCl, 1 mM DTT, 0.5 mg/ml BSA, 10% glycerol, 0.05 ug/ul poly[dI-dC], 30 C 30 min, 100 ng RNA, pH not stated; Pol EMSA: 20 mM Tris pH 7.5, 2 mM MgCl2, 15 mM NaCl, 20 mM KCl, 4 mM DTT, yeast tRNA, 30 C 1 h. The note with it: protein: recombinant; label: 5'-32P; stem-loop with bulge and apical loop.

The target in another data set is ISG20 dExoIII (UniProt Q96AZ6 1-181, del147-157). In words: EMSA; no Mn2+; binding completely lost; ISG20 EMSA: 20 mM HEPES, 100 mM KCl, 1 mM DTT, 0.5 mg/ml BSA, 10% glycerol, 0.05 ug/ul poly[dI-dC], 30 C 30 min, 100 ng RNA, pH not stated; Pol EMSA: 20 mM Tris pH 7.5, 2 mM MgCl2, 15 mM NaCl, 20 mM KCl, 4 mM DTT, yeast tRNA, 30 C 1 h. As to conditions: protein: recombinant; tags: 6xHis (pRSET A); label: 5'-32P; stem-loop with bulge and apical loop.

CUUGUUCAUGUCCUACUGUUCUGGGGCAUGGACAUC (structured_RNA) [Lower stem + bulge (LS+B)]: the binding result with ISG20 (wild type) [1] is “binds”.
Still for that read-out and setting: to CUUGUUCAUGUCCUACUAAAAUGGGGCAUGGACAUC (structured_RNA) [Lower stem + bulge mutant (LS+Bm)] belongs “binds”.
Still for that read-out and setting: in the case of UCAAGCCUCCAAGCUGUGCCUUGGGUGGCUUUG (structured_RNA) [Upper stem + loop (US+L)] it was “no binding”.
Take CAUGUCCUACUGUUCUGGGGCAUG (structured_RNA) [Lower stem d4bp + bulge (LSd4+B)]: in the data set with ISG20 (wild type) [2], the binding result was “no binding”.

B1: HBV epsilon full length (FL) (structured_RNA)
RNA: CUUGUUCAUGUCCUACUGUUCAAGCCUCCAAGCUGUGCCUUGGGUGGCUUUGGGGCAUGGACAUC
For the molecule B1, the binding result is reported as “binds” in the data set with ISG20 dExoI; “binds” with ISG20 dExoII; “binds” with ISG20 D94G; “binds” in the data set with ISG20 (wild type) [3]; “no binding” with ISG20 dExoIII.
